Measured values published in paper PMC4078746.

Target: Slit D2 (the Robo-binding domain of Slit) (Drosophila)
Test: SPR

“Robo2 Ig1-5 fragment (Ig domain-containing portion of the Robo2 ectodomain) (domain or fragment)” gave a Kd of 1100 nM.
“Robo1 Ig1-5 fragment (Ig domain-containing portion of the Robo ectodomain) (domain or fragment)” was tested, and the Kd was 235 nM.
